Results on two proteins are retold here after paper PMC9563126, “Identification of a flavonoid C-glycosyltransferase from fern species Stenoloma chusanum and the application in synthesizing flavonoid C-glycosides in Escherichia coli” (Microbial Cell Factories, 2022).

For orientation: Km means the concentration of substrate that gives half-maximal velocity. As a reminder, the Vmax is the top rate of the reaction or transport when substrate is in excess. Usually kcat stands for the number of substrate molecules converted per active site and unit of time at saturation. As usually defined, the kcat/Km is the second-order rate constant that governs catalysis at low substrate concentration.

Substrate in series [1]: O=C1CC(O)(c2ccc(O)cc2)Oc2cc(O)cc(O)c21
As to the kind of experiment: HPLC glycosylation assay, Lineweaver-Burk. The class given is biochemical, Odontosoria chinensis. As to conditions: 1 mM UDP-glucose, 200 mM MES pH 6.5, 1 mM DTT, 30 °C, 15 min, acceptor varied. From the text:
(§1) HPLC glycosylation assay, Lineweaver-Burk on ScCGT1

Substrate in series [2]: O=C(CCc1ccc(O)cc1)c1c(O)cc(O)cc1O
As to the kind of experiment: HPLC glycosylation assay, Lineweaver-Burk. Type of series: biochemical, Odontosoria chinensis. To be noted: 1 mM UDP-glucose, 200 mM MES pH 6.5, 1 mM DTT, 30 °C, 15 min, acceptor varied.
Description: as §1

B1: ScCGT1 (Odontosoria chinensis) (protein)
chain: MASCDTGLLSDQRHHALMFPYPVQGHIQPFMRLSKLLATNYGFTISFFNSEENHRRLLADRDEPASQEDRAEDAEGKPLDFRMLFLPDVLPSSTEVEQMSAGTHIEKSHVLLSKTFLNTDPAALETLIRSQSPPITCLILDPLVTVIAPGLGEKLGITSLIFFPASAASLATAIRSGEVDGDAKQMTRIVGAPVLDVKEVNPFLSICGRGHSDFMARLFTQPFRKKLIKANDIILINTVEELEESTLKHLQEENKVCAIGPVLPPWGAFAVPTLWSQDYSCLDWLDKQPAASVLFVSFGSLATLSSTQLSDLALGLEASNQRILWVTRPDQIYGKAPDLPSDFLERIKDRILVFSWVPQLHVLCHTSVGGFLSHCGWNSTIESIAAGVPILAWPFFGDQMLNAKCVVEKWRIGLALTGAGGAMSKAVVETRVKDLMEGDLSKELRNRAQNLKHIVVKALSHGGSSSSNLQKLFGHL
In the case of B1, in series [1], the Km is 17.5 ± 2.0 µM, the Vmax came out at 0.0115 µmol/min/mg, the kcat stood at 0.0133 ± 0.000167 s⁻¹ and the kcat/Km amounted to 795 M⁻¹ s⁻¹. Also, in series [2], the Km is 23.8 ± 2.8 µM, the Vmax came out at 0.011 µmol/min/mg, the kcat stood at 0.0133 ± 0.000333 s⁻¹ and the catalytic efficiency (kcat/Km) was determined as 560 M⁻¹ s⁻¹.

B2: ScCGT1 (Odontosoria chinensis; P164T) (protein)
chain: MASCDTGLLSDQRHHALMFPYPVQGHIQPFMRLSKLLATNYGFTISFFNSEENHRRLLADRDEPASQEDRAEDAEGKPLDFRMLFLPDVLPSSTEVEQMSAGTHIEKSHVLLSKTFLNTDPAALETLIRSQSPPITCLILDPLVTVIAPGLGEKLGITSLIFFTASAASLATAIRSGEVDGDAKQMTRIVGAPVLDVKEVNPFLSICGRGHSDFMARLFTQPFRKKLIKANDIILINTVEELEESTLKHLQEENKVCAIGPVLPPWGAFAVPTLWSQDYSCLDWLDKQPAASVLFVSFGSLATLSSTQLSDLALGLEASNQRILWVTRPDQIYGKAPDLPSDFLERIKDRILVFSWVPQLHVLCHTSVGGFLSHCGWNSTIESIAAGVPILAWPFFGDQMLNAKCVVEKWRIGLALTGAGGAMSKAVVETRVKDLMEGDLSKELRNRAQNLKHIVVKALSHGGSSSSNLQKLFGHL
Turning to B2, in series [1], the Michaelis-Menten constant (Km) amounted to 31.7 ± 2.9 µM, the maximal velocity (Vmax) worked out at 0.0399 µmol/min/mg, the kcat turned out to be 0.0483 ± 0.001 s⁻¹ and the kcat/Km was determined as 1520 M⁻¹ s⁻¹. For the same protein, in series [2], the Km was 29.8 ± 2.5 µM, the Vmax was 0.0334 µmol/min/mg, the kcat came to 0.04 ± 0.000833 s⁻¹ and the catalytic efficiency (kcat/Km) was 1360 M⁻¹ s⁻¹.
